B1: TPR t1 (parent)
chain: GACCAAUCUGCCCUCAGAGCUCGAGAACAUCUUCGGAUGCAGAGGAGGCAGGCUUCGGUGGCGCGAUAGCGCCAACGUCCUCAACCUCCAAUGCAUCCCACCACAUGAUGAUGCCUGAAGAGCCUUGGUUUUUUG

Variants of: B1
Assay: polymerase ribozyme fitness, log enrichment relative to wild type (log ratio); higher = more active; in vitro selection for triplet polymerase activity
Procedure, shortened: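 To select mutant libraries of each subunit of a heterodimeric triplet polymerase ribozyme, built by PCR and transcribed, each was annealed with a biotinylated primer, partner subunit and triplets, then incubated frozen at −7 °C. Extended constructs were gel-excised, captured on streptavidin beads and amplified by RT-PCR, in one round carried out in triplicate. Illumina sequencing of input and output libraries kept genotypes with ≥10 input reads and ≥1 read per output. Fitness is the base-2 logarithm of genotype enrichment relative to wild-type enrichment, from inverse-variance-weighted replicate averages.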

Variant | polymerase ribozyme fitness (log ratio)
G48U A50G U92C A108G | -5.83
C8G C49U G127A | -1.03
U21C C22G G63A G77U C94A G110C U112C | -7.86
C8A G93U U106A | -0.449
G61A U129A | -1.11
G69U G110A | 0.0569
C40A A41U A50C | -1.94
C15A G47U C123U | -2.56
A2G C13G A37U C49A C53A A100G C114A C124A | -7.24
C53A A66U | -1.07
A43U C53U C72A A91U A105G U106A U125G | -2.96
G57U G117A G135U | -2.73
G19U C53G C73A U112A | -1.03
G60A A74G | -2.01
G47U G77U U106G | -3.7
C97U U116G G135U | -3.49
U21G C64U | -2.06
C62G C73U A74U U109G C124A | -6.92
G57C G69A | -3
G63C A91U | -2.7
A43U G48U A50U C62U C88G C101G U112A | -5.19
C15G A37U G48U G77U G122A | -4.17
A27G C56U | -1.35
G69C U92A U133G | -4.36

Variant | polymerase ribozyme fitness (log ratio)
C4A C13U A24C C40G A111G | -5.59
C4G G110C | -5.58
G45U A68G | -4.43
G63U U133A | -2.29
G48U U59G C80A G120U C123A | -4.73
A29U G39U A74U A91U U132A | -4.44
U55C G69C C79A | -3.59
C12G C72G C86A U92A G110U | -4.84
G63U C73A | -2.51
U9G U78C A121U | 1.6
A2C A41C | -2.75
A43C G58A U78A C114A | -5.29
G65A G69A U112C | -4.9
C12A G45A C85A | -3.04
A2U C4G C22G U32C C70A A111U G128C | -4.89
C62A G69U | -3.2
C8A G52U A91U U112A A118C U131C | -1.36
G36A G45U G61C | -3.57
U9G A37C G44U | -1.47
U21A C89G | -2.25
G17A A37U C115U | 0.842
C8U U9C G52U U55C U59C | 0.781
G42U U78A | -2.36
C22U C53A C72U A95G C104A | -4.54

Variant | polymerase ribozyme fitness (log ratio)
C72U C80A | -5.24
A2G C62U U78A A103C | -5.9
A2U C49A G71A C82A G120U | -3.9
U14A U54A U130G | -4.16
C79U G117A A119U | -4
C8U C49U G61A | 0.346
G71U U112G | -0.608
C49A C86A | -2.07
C28U G42U C49G G69U U126G U130A | -6.32
C12U G48U C49U G63C C94U G128C | -4.36
A26U U78A | -3.18
C15A C62U | -2.04
G36U A74G A105U | -3.55
U7A A26U C49U C94G C123G | -4.09
C11G A46G C79U C82U C98U A118U | -0.917
C49A A50G C88A | -1.58
C70U G120A | 0.259
U7G G120U | 0.729
C115A C123G | 1.01
G58A G60A C99U U130A | -5.34
A6G A41C C76U C115U U130A U133A | -2.77
A29G C40G A74U U81A U92G C115A | -3.87
A2G G93A G120U | -0.278
U54G C82A C94G C124U | 0.658

Variant | polymerase ribozyme fitness (log ratio)
G45A A121G | 1.78
G117U C123A | -2.17
C53U C79G G113C | -3.6
C8G C15U C62U G135U | -1.08
A37G C80U | -2.46
C56A C79U U87A | -0.983
U32C G45A G63C C114U | -2.97
C73G C82A U92A | -4.06
C56A A66U G71C G120U | -7.24
U87C | 0.386
G44C G47A G61U U133A | -1.13
A74G A91G G93C G120C | -2.64
G36U U106G | -4.55
G45U U81A | -3.03
G60U A91G C123U | -0.372
C8A G61A C115U | -0.118
C40U C56G A84C C88A U109A | -7.02
G93U G110U | -2.46
U14A G42C G110C | -5.7
G17A A91C C124A U132A | -0.557
U38G A83C | -1.25
C82G G110C | -4.38
C56G C94A | -0.555
C8A U109A | -4.14

Variant | polymerase ribozyme fitness (log ratio)
G19A A37C G61U G120C | -2.13
G77C C124U G127A U129A | -0.0326
G39A C89G C101U | -1.85
C20A A41C G71A C82A | -5.71
A27U C62A | -4.1
C28U A43U C89G | -5.07
G120A U126C | -0.356
A121U G135U | 1.28
A50U C72U U96A U112A | -1.9
G47U | -1.72
U32C C73U G117U | -2.41
A16C U87C | -2.31
C15A G69U | -1.16
C22U G69U C94G | -1.67
G23U C56U C70G A75U U78A C99A U112A | -6.9
C56U U116C | -0.494
A66U C115U | -3.52
C22A A37U A43C C114A A118G | -6.5
C34A A41U G61C G120U | -6.86
G10U G93A | -0.609
C53A C86U G128U | -1.61
G110C | -3.75
C11A G61A C80U C98U A100U | -4.96
C70U A111U | -4.03

Variant | polymerase ribozyme fitness (log ratio)
G45A C88U | -0.289
G61U U112A U130A | 1.31
C34A C85U A118U U130A U132C | -3.6
G44C G47A C73G | -2.76
C62A U87A A90U A111C | -5.52
C56A C62A U78C C79U | -4.08
C56U G113U | -2.72
G47U G63U | -2.33
C40G G107A | -6.63
C34A G58A C89U A121G | -2.92
C34G C123A | -6.76
C12A G61U C98U U125A | -1.77
C8U G39A C94G C99U | -4.71
C53G A75U C88A | -0.918
C12G C115U | -1.38
C73A A111U | -2.93
G60A U130C | -0.0253
G69A G107C U112A | -6.47
A37U G122A | -1.18
G69A G113A A121U | -1.68
G45A C79G | -1.88
G57U C62G | -1.62
A41U C53G G113C | -3.41
G60A C79U C80A A121G | -3.77

Variant | polymerase ribozyme fitness (log ratio)
G10U A37C C85A | -1.32
C12U G51A C79U C101A | -3.78
G51C G110C | -6.54
G122A U126A | -2.34
C11A G48U U96G U112C | -1.36
C82A U126A | -2.16
A2C U112A | -0.421
A41U C124U | 0.983
C53A C62A U125C | -6.14
G48A C62A U96A | -2.62
G51A C72G | -2.71
A2C C98U | -3.19
G47U C53U C104U | -1.72
C28G C56U | -2.39
C12G A46G C53G A95G A119G | 0.414
A27G C98U | -3.4
A108G U109A C124A | -4.41
G25U C56G | -5.61
G10A A27C C56A G57A C72U U78G G93C | -4.76
A2C C11U C15U U55G A90G A121G | -0.451
C56A C82U | -0.413
G45U C64A A111U U133A | -5.34
U7A G120C | 1.32

— the RNAGym collection of RNA variant scans (doi:10.1073/pnas.2313332121)
